In patent US6699677B1, “Tethered ligands and methods of use” (ChemoCentryx, Inc., priority 1999, dated 2004):

Tests used:
[1] = biological target: T1, CCR10 (Homo sapiens, UniProt Q9NPB9); assay: Spectrum of ligands that bind to CCR10; type: binding; set-up: Full length CCR10 expression constructs were made in pIRESpuro expression vector; expressed in transfected cells; HEK293-CCR10)
T1 sequence (Q9NPB9 1-350): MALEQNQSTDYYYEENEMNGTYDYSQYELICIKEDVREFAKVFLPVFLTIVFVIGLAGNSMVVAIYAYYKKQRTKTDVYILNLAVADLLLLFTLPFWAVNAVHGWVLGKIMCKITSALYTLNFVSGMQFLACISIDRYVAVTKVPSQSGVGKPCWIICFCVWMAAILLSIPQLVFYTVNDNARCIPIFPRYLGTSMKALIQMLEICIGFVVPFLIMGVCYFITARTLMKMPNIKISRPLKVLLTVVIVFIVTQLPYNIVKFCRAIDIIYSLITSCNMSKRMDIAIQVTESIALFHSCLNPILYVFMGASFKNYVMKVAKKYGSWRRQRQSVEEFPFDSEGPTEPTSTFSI
Text: (§1) Furthermore ELC-SK mediated adhesion was abolished in the presence of soluble native ELC as a competitor (FIG. 3A, top row). […] Moreover, radiolabeled ELC was used in a traditional homologous competition assay in the presence of increasing concentrations of unlabeled ELC. […] Taken together, the stalkokine-based adhesion and radiolabeled ligand binding/homologous competition assays indicate that CCR10 is a new chemokine receptor that bound a novel compliment of chemokines.

[2] = biological target: T2, CCR7 (Homo sapiens, UniProt P32248); assay: Binding of CCR7-NSO cells to immobilized stalkokines
T2 construct: host or cells: mouse myeloma NSO
T2 sequence (P32248 25-378): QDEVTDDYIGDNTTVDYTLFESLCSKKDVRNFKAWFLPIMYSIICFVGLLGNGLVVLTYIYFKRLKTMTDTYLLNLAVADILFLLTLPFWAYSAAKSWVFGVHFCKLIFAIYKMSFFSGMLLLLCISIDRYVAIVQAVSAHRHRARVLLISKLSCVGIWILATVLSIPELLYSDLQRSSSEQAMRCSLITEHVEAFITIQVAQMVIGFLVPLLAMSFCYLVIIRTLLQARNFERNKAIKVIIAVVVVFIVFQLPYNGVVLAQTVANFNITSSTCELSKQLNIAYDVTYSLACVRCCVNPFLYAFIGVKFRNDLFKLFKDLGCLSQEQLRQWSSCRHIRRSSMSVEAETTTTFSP
Experimental: (§2) In one set of experiments, five 8 well chamber slides (Lab-Tek II, Nalge Nunc International, Rochester, N.Y.), 250 ul of 10 ug/ml anti-his antibody (R&D Systems, Minneapolis, Minn.) in PBS was added to each well and incubated at room temperature overnight (typically 16 hours). Following, the liquid in each well was aspirated and washed once for approximately 5 minutes with 500 ul of PBS. The wells were then “blocked” (blocked for any additional protein binding sites) with the addition of 250 ul of blocking solution (2% fetal bovine serum, 0.5% BSA in PBS) and incubation for 1 hour at room temp (e.g., 20° C.). The liquid in each well was aspirated and 250 ul of supernatant containing the chemokine-stalk-immobilization domain fusion proteins (SDF1a-FRAC, finetaxin-FRAC, CCL27-FRAC, 1309-FRAC, MIP3a-FRAC, ELC-FRAC, SLC-FRAC, MDC-FRAC, TARC-FRAC, or BRAK-FRAC) or the control supernatant was added to two wells. Each slide contained two wells with control supernatant (from mock-transfected cells) and two wells with the positive control SDF1a (which binds the ubiquitous chemokine receptor CXCR4). The four other wells were for experimental samples. The supernatants were incubated for one hour at room temperature (typically 20° C.), then incubated for an additional hour at 37° C. […] The slide was then ready for addition of cells for assay. […]

[3] = tested on: wild type HEK293 cells; assay: Homologous competition binding of radiolabeled ELC on wild type HEK293 cells; set-up: species or system human; conditions: wildtype (wt) HEK293 cells
Text: as §1

[4] = biological target: T1, CCR10; assay: Binding of CCR10-NSO cells to immobilized stalkokines; set-up: expressed in transfected cells; host or cells: not clear (NSO per the earlier reading)
Experimental: as §2

[5] = biological target: T1, CCR10; assay: Homologous competition binding of radiolabeled chemokine on HEK293-CCR10 cells; set-up: Full length CCR10 expression constructs were made in pIRESpuro expression vector; expressed in transfected cells; HEK293-CCR10)
Text: Human, viral and murine recombinant chemokines were obtained from R&D Systems (Minneapolis, Minn.; http://cytokine.rndsystems.com/cyt_cat/cyt_cat.html). ^125I-labeled ELC and TECK were obtained from Amersham. Full length CCR10 expression constructs were made in pIRESpuro expression vector (Clontech, Palo Alto, Calif.) with a FLAG epitope tag and prolactin signal sequence, and used to generated stable transfectants in HEK293 cells. Transient and stable transfections for CCR10 and stalkokines were done using Superfect reagent (Qiagen, Valencia, Calif.) following manufacturer's protocol. Stably-transfected cells were generated by selection in 2 ug/mL puromycin for 7 days, and expression was confirmed by FACS analysis of the FLAG epitope using anti-FLAG M1 (Sigma, St. Louis, Mo.) and 2′ anti-mouse PE conjugate (Coulter Immunotech, Miami, Fla.).
as §1

Row | Affinity of binding to CCR10 [1] | Binding to Stalkokine form [2] | Binding to Stalkokine form [4] | Binding of radiolabeled chemokine in homologous competition with cold chemokine [5] | Substance | Binding of radiolabeled ELC in homologous competition with unlabeled ELC [3]
1 | lower affinity |  |  |  | BLC: chemokine | 
2 | high affinity | yes | yes | significant binding | ELC: EBl1 ligand chemokine, soluble recombinant native form | not
